Assay results taken from patent US20220144956A1 (published 2022).
Numbering of substitutions follows the chain as printed.

B1: H1.51 L1 XENP34507 (antibody, V domains shown)
VH: QLQVQESGPGLVKPSETLSLTCTVSGGSISNSYFSWGWIRQPPGKGLEWIGSFNYGEKTYYNPSLKSRATISIDTSKSQFSLKLSSVTAADTAVYYCPRGPTMIRGVIDSWGQGTLVTVSS
VL: EIVLTQSPATLSLSPGERATLSCRASQSVRSYLAWYQQKPGQAPRLLIYDASNRATGIPARFSGSGSGTDFTLTISSLEPEDFAVYYCQQRSNWPPTFGQGTKVEIK
B2: H1.74 L1 XENP34530 (antibody, V domains shown)
VH: B1 VH with N54Y, S78N
VL: B1 VL
B3: H1.64 L1 XENP34520 (antibody, V domains shown)
VH: B1 VH with N54Y, Y60N
VL: B1 VL
B4: H1.75 L1 XENP34531 (antibody, V domains shown)
VH: B1 VH with N54Y, K83Q
VL: B1 VL
B5: H1.61 L1 XENP34517 (antibody, V domains shown)
VH: B1 VH with N54Y, T59I
VL: B1 VL
B6: H1.55 L1 XENP34511 (antibody, V domains shown)
VH: B1 VH with N54Y, G56S
VL: B1 VL
B7: H1.47 L1 XENP34503 (antibody, V domains shown)
VH: B1 VH with F53V, N54Y
VL: B1 VL
B8: H1.60 L1 XENP34516 (antibody, V domains shown)
VH: B1 VH with N54Y, K58S
VL: B1 VL
B9: H1.65 L1 XENP34521 (antibody, V domains shown)
VH: B1 VH with N54Y, Y60S
VL: B1 VL
B10: H1.42 L1 XENP34498 (antibody, V domains shown)
VH: B1 VH with S52N, N54Y
VL: B1 VL
B11: H1.58 L1 XENP34514 (antibody, V domains shown)
VH: B1 VH with N54Y, K58D
VL: B1 VL
B12: H1.54 L1 XENP34510 (antibody, V domains shown)
VH: B1 VH with N54Y, Y55S
VL: B1 VL
B13: H1.67 L1 XENP34523 (antibody, V domains shown)
VH: B1 VH with N54Y, N62S
VL: B1 VL
B14: H1.43 L1 XENP34499 (antibody, V domains shown)
VH: B1 VH with S52T, N54Y
VL: B1 VL
B15: H1.62 L1 XENP34518 (antibody, V domains shown)
VH: B1 VH with N54Y, Y60F
VL: B1 VL
B16: H1.56 L1 XENP34512 (antibody, V domains shown)
VH: B1 VH with N54Y, E57G
VL: B1 VL
B17: H1.86 L1 XENP34542 (antibody, V domains shown)
VH: B1 VH with N54Y, M103T
VL: B1 VL
B18: H1 L1.5 XENP34568 (antibody, V domains shown)
VH: B1 VH with N54Y
VL: B1 VL with A19V
B19: H1.88 L1 XENP34544 (antibody, V domains shown)
VH: B1 VH with N54Y, I104A
VL: B1 VL
B20: H1.82 L1 XENP34538 (antibody, V domains shown)
VH: B1 VH with N54Y, T102S
VL: B1 VL
B21: H1.104 L1 XENP34560 (antibody, V domains shown)
VH: B1 VH with N54Y, S110V
VL: B1 VL
B22: H1.84 L1 XENP34540 (antibody, V domains shown)
VH: B1 VH with N54Y, M103E
VL: B1 VL
B23: H1.90 L1 XENP34546 (antibody, V domains shown)
VH: B1 VH with N54Y, I104N
VL: B1 VL
B24: H1 L1.3 XENP34566 (antibody, V domains shown)
VH: B1 VH with N54Y
VL: B1 VL with A9P
B25: H1.95 L1 XENP34551 (antibody, V domains shown)
VH: B1 VH with N54Y, R105K
VL: B1 VL
B26: H1.78 L1 XENP34534 (antibody, V domains shown)
VH: B1 VH with N54Y, P98A
VL: B1 VL
B27: H1 L1.7 XENP34570 (antibody, V domains shown)
VH: B1 VH with N54Y
VL: B1 VL with S28G
B28: H1.77 L1 XENP34533 (antibody, V domains shown)
VH: B1 VH with N54Y, A90V
VL: B1 VL
B29: H1.81 L1 XENP34537 (antibody, V domains shown)
VH: B1 VH with N54Y, T102N
VL: B1 VL
B30: H1.83 L1 XENP34539 (antibody, V domains shown)
VH: B1 VH with N54Y, M103A
VL: B1 VL
B31: H1.85 L1 XENP34541 (antibody, V domains shown)
VH: B1 VH with N54Y, M103S
VL: B1 VL
B32: H1.89 L1 XENP34545 (antibody, V domains shown)
VH: B1 VH with N54Y, I104D
VL: B1 VL
B33: H1.105 L1 XENP34561 (antibody, V domains shown)
VH: B1 VH with N54Y, S110Y
VL: B1 VL
B34: H1.98 L1 XENP34554 (antibody, V domains shown)
VH: B1 VH with N54Y, V107A
VL: B1 VL
B35: H1.99 L1 XENP34555 (antibody, V domains shown)
VH: B1 VH with N54Y, V107S
VL: B1 VL

These binders were tested against T1, human TGFßRII (antigen of the Octet experiments) (human, UniProt P37173 23-166) (assay: BLI (Octet)).
T1 sequence (P37173 23-166): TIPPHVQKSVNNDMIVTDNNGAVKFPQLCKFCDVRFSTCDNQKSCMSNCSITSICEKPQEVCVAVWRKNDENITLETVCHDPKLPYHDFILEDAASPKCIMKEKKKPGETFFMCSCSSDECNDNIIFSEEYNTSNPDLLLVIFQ

Kd [pM] | Binder
35600 | B1
771 | B2
5370 | B3
1180 | B4
791 | B5
348 | B6
677 | B7
3860 | B8
15100 | B9
2590 | B10
2490 | B11
666 | B12
1950 | B13
627 | B14
1350 | B15
203 | B16

Molecular target: T1, human TGFßRII (antigen of the Octet …)
Assay: BLI (Octet)
Remark: another data set of the same source

Kd [pM] | Binder
66.2 | B17
1300 | B18
402 | B19
2410 | B20
601 | B21
4160 | B22
74.7 | B23
547 | B24
2340 | B25
699 | B26
315 | B27
749 | B28
300000 | B29
3470 | B30
4000 | B31
141 | B32
455 | B33
761 | B34
431 | B35
